Assay results from patent US20110020220A1 (DELENEX THERAPEUTICS, published 2011).

Columns and labels:
Biotinylated Abeta42 = biological target: T1, Biotinylated Abeta42 (UniProt P05067 672-713, biotinylated (site not stated)); test: ELISA, biotinylated Abeta42 on neutravidin plates, ESBA212 0 to 500 nM
T1 construct: domain: Abeta42 (42 amino acid peptide); Captured on neutravidin-coated ELISA plates; also called beta-amyloid42
Experimental: (§1) The binding properties of ESBA212 were tested in an ELISA where Abeta40 and Abeta42, respectively, were used as antigens. 96-well plates were coated with 5 μg/ml neutravidin in dilution buffer (PBS/0.01% BSA/0.2% Tween-20) and incubated overnight at 4° C. The plates were then washed 3 times with TBS/0.005% Tween-20. Biotinylated Abeta40 or Abeta42 (1 μg/ml in dilution buffer) were added to each well and the plate incubated for 15 minutes at room temperature. Plates were washed as above and non-specific binding sites were blocked by addition of dilution buffer. The plates were incubated for another 1.5 hours at room temperature while shaking. After washing the prepared ESBA212 dilutions from 0 to 500 nM were added in triplicates to the wells and incubated for 1 hour at room temperature (RT) while shaking. Plates were washed and ESBA212 was detected by a purified rabbit polyclonal anti-ESBA212 antibody (1:10000 in dilution buffer) for 1 hour at RT. After washing a horseradish peroxidase-labelled anti-rabbit IgG (1:4000 in dilution buffer) was used to detect the previously bound rabbit antibodies and […]. The reaction was stopped by addition of 1 M HCl and the absorption read at 450 nm.
(§2) From the measured ESBA212 curve an EC50 could be calculated.

Biotinylated Abeta40 = biological target: T2, Biotinylated Abeta40 (UniProt P05067 672-711, biotinylated (site not stated)); test: ELISA, biotinylated Abeta40 on neutravidin plates, ESBA212 0 to 500 nM
T2 construct: domain: Abeta40 (40 amino acid peptide); Captured on neutravidin-coated ELISA plates; also called beta-amyloid40
T2 sequence (P05067 672-711 limits assumed): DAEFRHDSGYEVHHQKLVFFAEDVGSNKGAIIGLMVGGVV
Experimental: as §1, §2

T1 sequence (P05067 672-713 limits assumed): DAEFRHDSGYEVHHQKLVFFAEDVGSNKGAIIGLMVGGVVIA

EC50 (Biotinylated Abeta42): 1 to 15 nM
EC50 (Biotinylated Abeta40): 1 to 15 nM
B1: ESBA212 (scFv)
scFv: ADIVLTQSPSSLSASVGDRVTLTCRASSSVNYMHWYQQRPGKPPKALIYATSNLASGVPSRFSGSGSGTEFTLTISSLQPEDVAVYYCQQWRTNPPTFGQGTKLEVKRGGGGSGGGGSGGGGSGGGGSQVQLVQSGPEVKKPGASVKVSCTASGYTFTEYTMHWVRQAPGQGLEWMGGVNPYNDNTSYIRKLQGRVTLTVDRSSSTAYMELTSLTSDDTAVYYCARYGGLRPYYFPMDFWGQGTLVTVSS
notes: Humanized scFv with the CDRs of mouse antibody 22C4 on framework 2.3; also called scFv ESBA212; single chain antibody ESBA212
